Assays:
[1] = test system: DYT-TOR1A MEF EVs; experiment: Quantitative LC-MS/MS proteomics of EVs from drug-treated DYT-TOR1A MEF cultures (ritonavir, salubrinal); format: cell-based, mouse; design: key to RTV Corrective Direction / RTV Corrective Direction, Grwd1 / RTV Corrective Direction, Srrm2 / RTV Corrective Direction, Rbm17 / RTV Corrective Direction, Dcaf8 / RTV Corrective Direction, Edil3 / RTV Corrective Direction, Timp3 / RTV Corrective Direction, Heatr3 / RTV Corrective Direction, Brd4 / RTV Corrective Direction, P3h4 / RTV Corrective Direction, Pacsin3 / RTV Corrective Direction, Naa50 / RTV Corrective Direction, Lpar6 / RTV Corrective Direction, Ndrg1 / RTV Corrective Direction, Kntc1 / RTV Corrective Direction, Cdk11b / RTV Corrective Direction, Sumo1 / RTV Corrective Direction, Lsm4 / RTV Corrective Direction, Hmga2 / RTV Corrective Direction, Cstf1 / RTV Corrective Direction, Tes / RTV Corrective Direction, Sbno1 / RTV Corrective Direction, Unc119b / RTV Corrective Direction, Cfdp1 / RTV Corrective Direction, Sec61b: YES = protein abundance effect opposite to DYT/WT; conditions: EV protein abundance; for RTV Corrective Direction: DYT + RTV (ritonavir) vs DYT, direction compared with DYT/WT; for DYT + RTV/DYT Cohen's d: ritonavir (RTV)-treated DYT vs DYT
[2] = test system: WT MEF EVs; experiment: Quantitative LC-MS/MS proteomics of EVs from ISRIB-treated WT MEF cultures; format: cell-based, mouse; design: key to ISRIB and DYT Parallel Direction / ISRIB and DYT Parallel Direction, Ctdsp1 / ISRIB and DYT Parallel Direction, Pcdh19 / ISRIB and DYT Parallel Direction, Tspan7 / ISRIB and DYT Parallel Direction, Myo1e / ISRIB and DYT Parallel Direction, Plpp3 / ISRIB and DYT Parallel Direction, Sh3bp4 / ISRIB and DYT Parallel Direction, Dnajc7 / ISRIB and DYT Parallel Direction, Drg1 / ISRIB and DYT Parallel Direction, Maea: YES = protein abundance effect similar to DYT/WT; conditions: EV protein abundance; for WT + ISRIB/WT Cohen's d: ISRIB-treated WT vs WT; for ISRIB and DYT Parallel Direction: WT + ISRIB vs WT, direction compared with DYT/WT

B1: Add1 (protein, UniProt P35611 1-737, looked up)
Alpha-adducin: MNGDSRAAVVTSPPPTTAPHKERYFDRVDENNPEYLRERNMAPDLRQDFNMMEQKKRVSMILQSPAFCEELESMIQEQFKKGKNPTGLLALQQIADFMTTNVPNVYPAAPQGGMAALNMSLGMVTPVNDLRGSDSIAYDKGEKLLRCKLAAFYRLADLFGWSQLIYNHITTRVNSEQEHFLIVPFGLLYSEVTASSLVKINLQGDIVDRGSTNLGVNQAGFTLHSAIYAARPDVKCVVHIHTPAGAAVSAMKCGLLPISPEALSLGEVAYHDYHGILVDEEEKVLIQKNLGPKSKVLILRNHGLVSVGESVEEAFYYIHNLVVACEIQVRTLASAGGPDNLVLLNPEKYKAKSRSPGSPVGEGTGSPPKWQIGEQEFEALMRMLDNLGYRTGYPYRYPALREKSKKYSDVEVPASVTGYSFASDGDSGTCSPLRHSFQKQQREKTRWLNSGRGDEASEEGQNGSSPKSKTKWTKEDGHRTSTSAVPNLFVPLNTNPKEVQEMRNKIREQNLQDIKTAGPQSQVLCGVVMDRSLVQGELVTASKAIIEKEYQPHVIVSTTGPNPFTTLTDRELEEYRREVERKQKGSEENLDEAREQKEKSPPDQPAVPHPPPSTPIKLEEDLVPEPTTGDDSDAATFKPTLPDLSPDEPSEALGFPMLEKEEEAHRPPSPTEAPTEASPEPAPDPAPVAEEAAPSAVEEGAAADPGSDGSPGKSPSKKKKKFRTPSFLKKSKKKSDS
[1]
  RTV Corrective Direction: YES
  DYT + RTV/DYT Cohen's d: 4.30
[2]
  WT + ISRIB/WT Cohen's d: 0.00
  ISRIB and DYT Parallel Direction: YES

B2: Psmd1 (protein, UniProt Q3TXS7 1-953, looked up)
26S proteasome non-ATPase …: MITSAAGIISLLDEEEPQLKEFALHKLNAVVNDFWAEISESVDKIEVLYEDEGFRSRQFAALVASKVFYHLGAFEESLNYALGAGDLFNVNDNSEYVETIIAKCIDHYTKQCVENADLPEGEKKPIDQRLEGIVNKMFQRCLDDHKYKQAIGIALETRRLDVFEKTILESNDVPGMLAYSLKLCMSLMQNKQFRNKVLRVLVKIYMNLEKPDFINVCQCLIFLDDPQAVSDILEKLVKEDNLLMAYQICFDLYESASQQFLSSVIQNLRTVGTPIASVPGSTNTGTVPGSEKDSDPMETEEKTASAVAGKTPDASPEPKDQTLKMIKILSGEMAIELHLQFLIRNNNTDLMILKNTKDAVRNSVCHTATVIANSFMHCGTTSDQFLRDNLEWLARATNWAKFTATASLGVIHKGHEKEALQLMATYLPKDTSPGSAYQEGGGLYALGLIHANHGGDIIDYLLNQLKNASNDIVRHGGSLGLGLAAMGTARQDVYDLLKTNLYQDDAVTGEAAGLALGLVMLGSKNAQAIEDMVGYAQETQHEKILRGLAVGIALVMYGRMEEADALIESLCRDKDPILRRSGMYTVAMAYCGSGNNKAIRRLLHVAVSDVNDDVRRAAVESLGFILFRTPEQCPSVVSLLSESYNPHVRYGAAMALGICCAGTGNKEAINLLEPMTNDPVNYVRQGALIASALIMIQQTEITCPKVNQFRQLYSKVINDKHDDVMAKFGAILAQGILDAGGHNVTISLQSRTGHTHMPSVVGVLVFTQFWFWFPLSHFLSLAYTPTCVIGLNKDLKMPKVQYKSNCKPSTFAYPAPLEVPKEKEKEKVSTAVLSITAKAKKKEKEKEKKEEEKMEVDEAEKKEEKEKKKEPEPNFQLLDNPARVMPAQLKVLSMTETCRYQPFKPLSIGGIIILKDTSEDVEELVEPVAAHGPKIEEEEQEPEPPEPFEYIDD
[1]
  RTV Corrective Direction: YES
  DYT + RTV/DYT Cohen's d: 4.33
[2]
  WT + ISRIB/WT Cohen's d: −0.65
  ISRIB and DYT Parallel Direction: YES

B3: Ddr2 (protein, UniProt Q62371 22-854, looked up)
Discoidin domain-containing …: KAQVNPAICRYPLGMSGGHIPDEDITASSQWSESTAAKYGRLDSEEGDGAWCPEIPVQPDDLKEFLQIDLRTLHFITLVGTQGRHAGGHGIEFAPMYKINYSRDGSRWISWRNRHGKQVLDGNSNPYDVFLKDLEPPIVARFVRLIPVTDHSMNVCMRVELYGCVWLDGLVSYNAPAGQQFVLPGGSIIYLNDSVYDGAVGYSMTEGLGQLTDGVSGLDDFTQTHEYHVWPGYDYVGWRNESATNGFIEIMFEFDRIRNFTTMKVHCNNMFAKGVKIFKEVQCYFRSEASEWEPTAVYFPLVLDDVNPSARFVTVPLHHRMASAIKCQYHFADTWMMFSEITFQSDAAMYNNSGALPTSPMAPTTYDPMLKVDDSNTRILIGCLVAIIFILLAIIVIILWRQFWQKMLEKASRRMLDDEMTVSLSLPSESSMFNNNRSSSPSEQESNSTYDRIFPLRPDYQEPSRLIRKLPEFAPGEEESGCSGVVKPAQPNGPEGVPHYAEADIVNLQGVTGGNTYCVPAVTMDLLSGKDVAVEEFPRKLLAFKEKLGEGQFGEVHLCEVEGMEKFKDKDFALDVSANQPVLVAVKMLRADANKNARNDFLKEIKIMSRLKDPNIIRLLAVCITEDPLCMITEYMENGDLNQFLSRHEPLSSCSSDATVSYANLKFMATQIASGMKYLSSLNFVHRDLATRNCLVGKNYTIKIADFGMSRNLYSGDYYRIQGRAVLPIRWMSWESILLGKFTTASDVWAFGVTLWETFTFCQEQPYSQLSDEQVIENTGEFFRDQGRQIYLPQPALCPDSVYKLMLSCWRRETKHRPSFQEIHLLLLQQGAE
[1]
  RTV Corrective Direction: YES
  DYT + RTV/DYT Cohen's d: 0.93
[2]
  WT + ISRIB/WT Cohen's d: −7.89
  ISRIB and DYT Parallel Direction: YES

B4: Srp68 (protein, UniProt Q8BMA6 1-625, looked up)
Signal recognition particle …: MAAEKQIPGGGSGGGGSGSGGGGGGSGGGRSAGGDENKENERPSAGSKANKEFGDSLSLEILQIIKESQQQHGLRHGDFQRYRGYCSRRQRRLRKTLNFKMGNRHKFTGKKVTEELLTDNRYLLLVLMDAERAWSYAMQLKQEANTEPRKRFHLLSRLRKAVKHAEELERLCESNRVDAKTKLEAQAYTAYLSGMLRFEHQEWKSAIEAFNKCKTIYEKLASAFTEEQAVLYNQRVEEISPNIRYCAYNIGDQSAINELMQMRLRSGGTEGLLAEKLEALITQTRAKQAATMSEVEWRGRTVPVKIDKVRIFLLGLADNEAAIVQAESEETKERLFESMLSECRDALQAVREELKPDQKQRDYALDGESGKVSNLQYLHSYLTYIKLSTAIRRNENMAKGLHRALLQQQPEDDSKRSPRPQDLIRLYDIILQNLVELLQLPGLEEDRTFQKEISLKTLVFKAYRCFFIAQSYVLVKKWSEALVLYDRVLKYANEVSSHGGASKNSLKDLPDVQELITQVRSEKCSLQAAAILDANDSHQTDTSSQVKDNTPLVERFESFCLDPSLVTKQANLVHFPPGFQPIPCKPLFFDLALNHVAFPPLEDKLEQKTKSGLTGYIKGIFGFRS
[1]
  RTV Corrective Direction: YES
  DYT + RTV/DYT Cohen's d: 2.70
[2]
  WT + ISRIB/WT Cohen's d: −1.21
  ISRIB and DYT Parallel Direction: YES

B5: Capg (protein, UniProt P24452 1-352, looked up)
Macrophage-capping protein: MYTPIPQSGSPFPASVQDPGLHIWRVEKLKPVPIARESHGIFFSGDSYLVLHNGPEEASHLHLWIGQQSSRDEQGACAVLAVHLNTLLGERPVQHREVQGNESDLFMSYFPRGLKYYREGGVESAFHKTTSGARGAAIRKLYQVKGKKNIRATERPLSWDSFNTGDCFILDLGQNIFAWCGGKSNILERNKARDLALAIRDSERQGKAQVEIITDGEEPAEMIQVLGPKPALKEGNPEEDITADQTRPNAQAAALYKVSDATGQMNLTKVADSSPFASELLIPDDCFVLDNGLCAQIYIWKGRKANEKERQAALQVADGFISRMRYSPNTQVEILPQGRESPIFKQFFKNWK
[1]
  RTV Corrective Direction: YES
  DYT + RTV/DYT Cohen's d: 3.57
[2]
  WT + ISRIB/WT Cohen's d: −0.61
  ISRIB and DYT Parallel Direction: YES

B6: Mcm2 (protein, UniProt P97310 2-904, looked up)
DNA replication licensing …: AESSESLSASSPARQRRRISDPLTSSPGRSSRRADALTSSPGRDLPPFEDESEGLLGTEGPMEEEEDGEELIGDGMERDYRPIPELDVYEAEGLALDDEDVEELTASQREAAERTMRQRDREAGRGLGRMRRGLLYDSSEEDEERPARKRRHVERATEDGEEDEEMIESIENLEDLKGHSVREWVSMAGPRLEIHHRFKNFLRTHVDSHGHNVFKERISDMCKENRESLVVNYEDLAAREHVLAYFLPEAPAELLQIFDEAALEVVLAMYPKYDRITNHIHVRISHLPLVEELRSLRQLHLNQLIRTSGVVTSCTGVLPQLSMVKYNCSKCNFVLGPFCQSQNQEVKPGSCPECQSAGPFEINMEETIYQNYQRIRIQESPGKVAAGRLPRSKDAILLADLVDSCKPGDEIELTGIYHNNYDGSLNTANGFPVFATIILANHVAKKDNKVAVGELTDEDVKMITGLSKDQQIGEKIFASIAPSIYGHEDIKRGLALALFGGEPKNPGGKHKVRGDINVLLCGDPGTAKSQFLKYIEKVSSRAIFTTGQGASAVGLTAYVQRHPVSREWTLEAGALVLADRGVCLIDEFDKMNDQDRTSIHEAMEQQSISISKAGIVTSLQARCTVIAAANPIGGRYDPSLTFSENVDLTEPIISRFDVLCVVRDTVDPVQDEMLARFVVGSHVRHHPSNKKDEGLTNGGTLEPAMPNTYGVEPLPQEVLKKYIIYAKERVRPKLNQMDQDKVARMYSDLRKESMATGSIPITVRHIESMIRMAEAHARMHLRDYVMEDDVNMAIRVMMESFIDTQKFSVMRSMRKTFARYLSFRRDNNDLLLFILKQLVAEQVTYQRNRFGAQQDTIEIPEKDLMDKARQINIHNLSAFYDSDLFKFNKFSRDLKRKLILQQF
[1]
  RTV Corrective Direction: YES
  DYT + RTV/DYT Cohen's d: 3.96
[2]
  WT + ISRIB/WT Cohen's d: −2.10
  ISRIB and DYT Parallel Direction: YES

Reference: US20260266848A1, “COMPOSITIONS AND METHODS FOR DIAGNOSING AND TREATING DYSTONIA” (Duke University, priority 2023, published 2026)
